Source: patent US20050118615A1 (COMPUGEN, published 2005)

How the values were obtained:
[1] = target: T1, recombinant human BMP-6 (R&D Systems) (human, UniProt P22004 382-513, limits assumed); assay: pull-down on Talon metal affinity resin with immobilised His-hCHL2, immunoblot with anti-BMP-6 antibody
T1 construct: Bought reagent
T1 sequence (looked up): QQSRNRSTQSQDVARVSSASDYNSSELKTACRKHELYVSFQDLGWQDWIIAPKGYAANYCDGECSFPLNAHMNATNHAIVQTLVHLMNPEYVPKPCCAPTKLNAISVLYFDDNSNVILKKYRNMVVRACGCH
From the text: (§1) Protein binding assays with His-tagged hCHL2 protein Culture media of COS7 cells, transfected with hCHL2 cloned in pcDNA4/His, or empty vector (see above), were collected every 24 hrs, beginning at 48 hrs after transfection for a total of 96 hrs, and concentrated 10-fold by ultrafiltration through a YM Millipore membrane under nitrogen pressure (Millipore, Bedford, Mass.) before binding of secreted His-tagged hCHL2 to BD TALONTM Metal Affinity Resin (Clontech, Palo Alto, Calif.). The resin was added to the concentrated medium, rotated for 30 min at room temperature, and then washed twice with loading buffer (50 mM NaH₂PO₄, pH 8, 300 mM NaCl, 5 mM imidazole) and resuspended in 200 μl of binding buffer (1 mM CaCl₂, 3 mM MgCl₂, 0.2% NP-40, 1 mg/ml BSA in PBS). The His-hCHL2, immobilized on the resin, was incubated with 200 ng of recombinant human BMP-2, -4, -6 or Activin A (all purchased from R&D Systems), while rotating for 1 hr at room temperature, and then washed once with binding buffer and twice with binding buffer supplemented with 0.2% Tween. […]
(§2) COS-7 cells were transfected with a pcDNA4 (Invitrogen, Carlsbad, Calif.) vector expressing His-tagged hCHL2 (coding region corresponding to variant II, SEQ ID NO:6), and the culture media were collected for 72 hrs. […] No interaction was detected with any of the other proteins tested (BMP-2, 4, or 6).

[2] = target: T2, recombinant human BMP-4 (R&D Systems) (human, UniProt P12644 293-408); assay: pull-down on Talon metal affinity resin with immobilised His-hCHL2, immunoblot with anti-BMP2/4 antibody
T2 construct: Bought reagent
T2 sequence (looked up): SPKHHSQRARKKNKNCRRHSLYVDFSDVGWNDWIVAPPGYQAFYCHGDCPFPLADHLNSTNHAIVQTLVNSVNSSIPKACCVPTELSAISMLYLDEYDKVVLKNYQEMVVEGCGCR
From the text: as §1, §2

[3] = target: T3, recombinant human BMP-2 (R&D Systems) (human, UniProt P12643 283-396); assay: as above
T3 construct: Bought reagent
T3 sequence (P12643 283-396 limits assumed): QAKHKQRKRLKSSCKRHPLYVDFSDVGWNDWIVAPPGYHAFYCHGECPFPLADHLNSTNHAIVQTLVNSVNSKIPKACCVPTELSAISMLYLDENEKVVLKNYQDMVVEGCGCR
From the text: as §1, §2

Measured: binding result

B1: His-tagged hCHL2 (variant II), secreted from COS-7 cells transfected with pcDNA4/myc-His-hCHL2 (other, not shown: small tags and cut ends)
chain: RARPDMFCLFHGKRYSPGESWHPYLEPQGLMYCLRCTCSEGAHVSCYRLHCPPVHCPQPVTEPQQCCPKCVEPHTPSGLRAPPKSCQHNGTMYQHGEIFSAHELFPSRLPNQCVLCSCTEGQIYCGLTTCPEPGCPAPLPLPDSCCQACKDEASEQSDEEDRVQSLHGVRHPQDPCSSDAGRKRGPGTPAPTGLSAPLSFIPRHFIPKGAGSTTVKIVLKEKHKKACVHGGKTYSHGEVWHPAFRAFGPLPCILCTCEDGRQDCQRVTCPTEYPCRHPEKVAGKCCKICPEDKADPGHSEISSTRCPKAPGRVLVHTSVSPSPDNLRRFALEHEASDLVEIYLWKLVKDEETEAQRGEVPGPRPHSQNLPLDSDQESQEARLPERGTALPTARWPPRRSLERLPSPDPGAEGHGQSRQSDQDITKT
notes: also called His-tagged hCHL2 protein
no binding (tested: 200 ng): all assays above
